Measured values from the supplement of paper PMC10567573.
± gives the standard deviation.

Assay: protein stability index of a GFP-peptide fusion (GPS, HEK-293T) (PSI 1-6); higher = more stable
[1] = treatment: DMSO, c terminus: a fixed tail appended
[2] = treatment: MLN4924 1 uM, 8 h, c terminus: a fixed tail appended
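Note: 24-mer peptide tiles fused after GFP, lentivirally expressed, FACS-sorted into six equal bins by GFP/DsRed ratio, decoded by Illumina sequencing, PSI is the read-weighted mean bin number.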

KQEMGTYLRFIVSRMKERAIDLNK [ZMYND11]
protein stability index [1]: 2.9 ± 0.73
protein stability index [2]: 2.71 ± 0.69

ASYDKTVRAWDLETGKLLWKVRYD [WDR88]
protein stability index [1]: 2.31 ± 0.4
protein stability index [2]: 2.14 ± 0.31

KYSLPWTTLDEFPLTRLGQLKACT [KCNG1]
protein stability index [1]: 2.42 ± 0.25
protein stability index [2]: 2.61 ± 0.34

RMKETQKSIYYITGESKEQVANSA [HSP90AB1]
protein stability index [1]: 4.07 ± 0.34
protein stability index [2]: 4.2 ± 0.25

CMFQEHKNHSTVTVEEAKAEKETE [TRIM29]
protein stability index [1]: 5.52 ± 0.22
protein stability index [2]: 5.36 ± 0.24

NRVWSISQEPDPVQRLQAYTATEQ [TRIM14]
protein stability index [1]: 4.09 ± 0.31
protein stability index [2]: 3.97 ± 0.31

CRVPNSGKDEIEAAVKAAREAFPS [ALDH8A1]
protein stability index [1]: 4.65 ± 0.27
protein stability index [2]: 4.54 ± 0.36

AKVESMDQEIKFFRCLFEAEITQI [KRT71]
protein stability index [1]: 2.01 ± 0.51
protein stability index [2]: 2.19 ± 0.15

ASFYACRLDKHLYVIGGRNETGYL [KLHL14]
protein stability index [1]: 2.7 ± 0.54
protein stability index [2]: 2.54 ± 0.95

AVGGRDDTTELSSAERYNPRTNQW [KLHL20]
protein stability index [1]: 4.47 ± 0.21
protein stability index [2]: 4.5 ± 0.16

KHVLYVEHRHLNPDTELKRYFGAR [TCF25]
protein stability index [1]: 2.29 ± 0.42
protein stability index [2]: 2.48 ± 0.36

FETHESDINSVRYYPSGDAFASGS [GNB5]
protein stability index [1]: 3.9 ± 0.25
protein stability index [2]: 3.94 ± 0.16

ASAIKKEELVARSETHAAGHSQEK [CHGB]
protein stability index [1]: 5.4 ± 0.43
protein stability index [2]: 5.37 ± 0.31

PAFKSMEVANFYYEADCLAAAYGG [CEBPB]
protein stability index [1]: 2.83 ± 0.25
protein stability index [2]: 2.96 ± 0.13

MSYHSGSVFSARDRDPNSLLISCA [TNXB]
protein stability index [1]: 2.51 ± 0.2
protein stability index [2]: 2.44 ± 0.15

EDQGRTRKRKQSGHSPARAGKQRM [DDIT3]
protein stability index [1]: 4.96 ± 0.27
protein stability index [2]: 4.96 ± 0.089

NLLDVYSSQGVATPAITVSNSCPA [TFE3]
protein stability index [1]: 3.4 ± 0.15
protein stability index [2]: 3.34 ± 0.22

LKRLYRAPIDWIEEYTTGMADCIL [ALG2]
protein stability index [1]: 2.26 ± 0.68
protein stability index [2]: 2.28 ± 0.69

AKVDSSGVIDLFGDAFGSSASEPQ [SNAP91]
protein stability index [1]: 4.47 ± 0.23
protein stability index [2]: 4.57 ± 0.19

PLFNPMIYSLRNKEFKSALCKIVR [OR10K2]
protein stability index [1]: 2.32 ± 0.071
protein stability index [2]: 1.9 ± 0.5

FASGGFQVKLYDIEQQQIRNALEN [CRYL1]
protein stability index [1]: 2.56 ± 0.28
protein stability index [2]: 2.95 ± 0.83

NSQALLLHSSILTCTLLLLYSLAP [MFSD9]
protein stability index [1]: 3.23 ± 0.12
protein stability index [2]: 3.08 ± 0.52

PKMRSKEQILELLVLEQFLTILPT [ZNF449]
protein stability index [1]: 3.07 ± 0.96
protein stability index [2]: 3.36 ± 0.73

SLLGEPCAGPGFTHNIAHGSLGFE [SPAG8]
protein stability index [1]: 3.03 ± 0.45
protein stability index [2]: 2.92 ± 0.4

GEITQHNVTELLRDVAAWGRARAT [DNAAF3]
protein stability index [1]: 3.11 ± 0.35
protein stability index [2]: 3.53 ± 0.5

FYLPREELWIYNMETGRWKKINTE [KLHDC2]
protein stability index [1]: 2.63 ± 0.22
protein stability index [2]: 2.32 ± 0.49

YPTDNTKVMIFKSSYSLSDMVSNI [MIA2]
protein stability index [1]: 2.51 ± 0.62
protein stability index [2]: 2.436 ± 0.003

IGREGAKDSYDFFTEIKTITVKH [ALDH8A1]
protein stability index (treatment: DMSO, c terminus: native): 2.35 ± 0.43
protein stability index (treatment: MLN4924 1 uM, 8 h, c terminus: native): 2.42 ± 0.25

SGSGFGSVSWWGLSPALDLQAESP [DNAAF3]
protein stability index [1]: 2.69 ± 0.56
protein stability index [2]: 2.43 ± 0.097

LRAEEIETRVTSGSMEALNLKQLR [PPFIA4]
protein stability index [1]: 4.32 ± 0.28
protein stability index [2]: 4.58 ± 0.57

QELVDYVNARQKQGIYEEYEDIRR [PTPN9]
protein stability index [1]: 3.88 ± 0.24
protein stability index [2]: 3.86 ± 0.2

EELDGLCFKGELPLRAVHINLEEK [PLEKHN1]
protein stability index [1]: 4.41 ± 0.26
protein stability index [2]: 4.44 ± 0.29

QKRYQDWFQRQYLSTPDSQSLRCD [INTS3]
protein stability index [1]: 2.96 ± 0.1
protein stability index [2]: 3.13 ± 0.17

TEKKQTKVEFPEARIYEETLNILL [KCTD10]
protein stability index [1]: 2.12 ± 0.1
protein stability index [2]: 2.23 ± 0.33

EGSCYQTFRQYCGAACTCHVRNPL [RNF208]
protein stability index [1]: 2.4 ± 0.37
protein stability index [2]: 2.6 ± 0.2

RPRGKERHKSGVHQPPQAGAGDVV [LYSMD4]
protein stability index [1]: 5.07 ± 0.27
protein stability index [2]: 5.07 ± 0.057

EVRLVQKKDTGHIYAMKILRKSDM [STK38L]
protein stability index [1]: 2.65 ± 0.22
protein stability index [2]: 2.45 ± 0.29

DFDDEKILIQHQKAKHFKCHICHK [ZNF207]
protein stability index [1]: 2.85 ± 0.31
protein stability index [2]: 3.31 ± 0.19

LKPTASKLGAPLSGLQGLPECTRC [PDLIM4]
protein stability index [1]: 3.24 ± 0.31
protein stability index [2]: 3.44 ± 0.12

RRPEVDPLPFPGPFPAGPLAVAGG [ESRRA]
protein stability index [1]: 3.56 ± 0.21
protein stability index [2]: 3.71 ± 0.24

SRVTMILFVLELEWVLSTGQDKQF [WDFY2]
protein stability index [1]: 3.1 ± 0.31
protein stability index [2]: 3.09 ± 0.66

MEEMQNKAVVFFVFYLWSAIEIFR [HACD3]
protein stability index [1]: 2.7
protein stability index [2]: 2.8 ± 0.63

CLPAGPRVYFLKGGYETFYSEYPE [DUSP5]
protein stability index [1]: 2.29 ± 0.22
protein stability index [2]: 2.28 ± 0.31

TDRSFNIVDIKPANMEDLTEVITA [PPP2R2C]
protein stability index [1]: 4.42 ± 0.14
protein stability index [2]: 4.37 ± 0.15
